According to IntAct's records for PubMed 29892012:

Key:
[1] = molecular target: nup62_human NUP62 (UniProt P37198)
[2] = molecular target: T1, dctd_human DCTD (UniProt P32321)
T1 sequence: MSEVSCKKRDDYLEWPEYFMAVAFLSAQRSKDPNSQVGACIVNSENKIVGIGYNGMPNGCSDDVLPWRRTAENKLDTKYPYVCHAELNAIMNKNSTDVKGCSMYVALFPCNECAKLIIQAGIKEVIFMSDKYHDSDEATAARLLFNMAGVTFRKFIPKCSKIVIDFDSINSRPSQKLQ

[3] = molecular target: T2, lonf1_human LONRF1 (UniProt Q17RB8)
T2 sequence: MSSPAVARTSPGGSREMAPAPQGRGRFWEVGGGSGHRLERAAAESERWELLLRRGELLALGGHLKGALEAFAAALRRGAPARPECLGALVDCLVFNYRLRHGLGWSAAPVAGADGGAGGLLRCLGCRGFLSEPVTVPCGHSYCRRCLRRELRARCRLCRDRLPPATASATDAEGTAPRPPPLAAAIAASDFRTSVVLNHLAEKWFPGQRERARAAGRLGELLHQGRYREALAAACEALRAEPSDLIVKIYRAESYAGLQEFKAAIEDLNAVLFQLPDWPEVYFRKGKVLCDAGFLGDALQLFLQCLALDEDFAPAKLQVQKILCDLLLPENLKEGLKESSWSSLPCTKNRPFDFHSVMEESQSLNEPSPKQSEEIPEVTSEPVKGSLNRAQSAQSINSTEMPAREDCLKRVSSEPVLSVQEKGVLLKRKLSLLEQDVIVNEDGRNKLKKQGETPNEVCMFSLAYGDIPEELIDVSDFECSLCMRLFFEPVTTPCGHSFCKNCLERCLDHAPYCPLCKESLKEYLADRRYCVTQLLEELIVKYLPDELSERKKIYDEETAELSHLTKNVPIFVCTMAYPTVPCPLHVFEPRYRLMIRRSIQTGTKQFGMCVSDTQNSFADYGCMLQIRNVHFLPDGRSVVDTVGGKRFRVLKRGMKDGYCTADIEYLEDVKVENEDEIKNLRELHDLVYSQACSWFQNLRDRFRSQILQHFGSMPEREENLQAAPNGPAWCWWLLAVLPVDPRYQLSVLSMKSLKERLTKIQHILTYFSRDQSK

[4] = molecular target: T3, bend5_human BEND5 (UniProt Q7L4P6)
T3 sequence: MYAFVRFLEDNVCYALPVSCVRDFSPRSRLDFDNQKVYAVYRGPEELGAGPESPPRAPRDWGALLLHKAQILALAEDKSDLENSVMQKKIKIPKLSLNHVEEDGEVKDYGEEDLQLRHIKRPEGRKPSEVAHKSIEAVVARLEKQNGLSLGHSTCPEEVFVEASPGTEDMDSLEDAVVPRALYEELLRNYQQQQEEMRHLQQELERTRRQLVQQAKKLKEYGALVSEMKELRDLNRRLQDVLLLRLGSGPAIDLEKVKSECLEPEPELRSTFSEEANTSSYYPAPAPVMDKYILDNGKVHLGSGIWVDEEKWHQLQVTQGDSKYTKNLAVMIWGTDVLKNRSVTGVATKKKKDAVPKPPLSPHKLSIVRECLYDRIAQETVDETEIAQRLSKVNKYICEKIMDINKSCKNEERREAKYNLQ

[5] = molecular target: T4, tle5_human TLE5 (UniProt Q08117)
T4 sequence: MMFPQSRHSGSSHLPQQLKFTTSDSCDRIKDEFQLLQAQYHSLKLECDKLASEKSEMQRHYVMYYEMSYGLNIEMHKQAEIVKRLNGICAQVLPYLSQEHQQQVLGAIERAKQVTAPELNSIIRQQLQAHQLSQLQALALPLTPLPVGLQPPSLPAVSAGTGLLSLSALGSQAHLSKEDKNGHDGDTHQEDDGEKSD

[6] = molecular target: T5, trim1_human MID2 (UniProt Q9UJV3)
T5 sequence: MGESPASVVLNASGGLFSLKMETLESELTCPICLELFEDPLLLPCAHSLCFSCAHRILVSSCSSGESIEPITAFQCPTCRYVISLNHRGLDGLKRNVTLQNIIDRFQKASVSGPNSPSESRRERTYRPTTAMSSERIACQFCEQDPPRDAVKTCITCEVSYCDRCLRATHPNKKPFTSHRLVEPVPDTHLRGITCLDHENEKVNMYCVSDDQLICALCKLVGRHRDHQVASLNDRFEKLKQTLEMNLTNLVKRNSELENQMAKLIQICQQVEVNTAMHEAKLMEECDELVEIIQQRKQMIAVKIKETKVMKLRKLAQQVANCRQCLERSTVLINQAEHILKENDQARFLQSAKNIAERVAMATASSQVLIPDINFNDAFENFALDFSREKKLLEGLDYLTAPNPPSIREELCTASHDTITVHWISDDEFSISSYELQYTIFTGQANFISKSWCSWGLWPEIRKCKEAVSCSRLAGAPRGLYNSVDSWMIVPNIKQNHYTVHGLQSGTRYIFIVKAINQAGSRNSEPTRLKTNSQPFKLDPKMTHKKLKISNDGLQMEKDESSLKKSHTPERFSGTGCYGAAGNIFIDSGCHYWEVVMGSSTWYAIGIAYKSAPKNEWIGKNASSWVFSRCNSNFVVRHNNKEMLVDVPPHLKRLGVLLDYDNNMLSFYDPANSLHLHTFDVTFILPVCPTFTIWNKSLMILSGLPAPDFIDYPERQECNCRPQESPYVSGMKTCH

[7] = molecular target: txlna_human TXLNA (UniProt P40222)
Chain of txlna_human TXLNA (P40222 whole entry): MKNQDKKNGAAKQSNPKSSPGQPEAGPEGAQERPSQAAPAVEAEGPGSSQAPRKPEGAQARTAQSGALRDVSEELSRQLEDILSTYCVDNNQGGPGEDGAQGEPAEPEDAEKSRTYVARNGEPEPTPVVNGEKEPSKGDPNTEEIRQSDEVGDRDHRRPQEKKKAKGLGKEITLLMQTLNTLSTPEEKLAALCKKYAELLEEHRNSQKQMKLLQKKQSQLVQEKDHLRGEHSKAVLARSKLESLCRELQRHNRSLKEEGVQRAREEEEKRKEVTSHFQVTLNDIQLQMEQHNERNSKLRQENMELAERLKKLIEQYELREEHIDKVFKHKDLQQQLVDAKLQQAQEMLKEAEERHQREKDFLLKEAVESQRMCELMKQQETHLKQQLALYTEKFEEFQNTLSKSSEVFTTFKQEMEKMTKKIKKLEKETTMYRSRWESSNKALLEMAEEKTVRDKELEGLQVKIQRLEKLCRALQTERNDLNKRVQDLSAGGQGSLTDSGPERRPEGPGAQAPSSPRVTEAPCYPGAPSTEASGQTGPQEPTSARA

[8] = molecular target: drc12_human DRC12 (UniProt Q494R4)
Chain of drc12_human DRC12 (Q494R4 whole entry): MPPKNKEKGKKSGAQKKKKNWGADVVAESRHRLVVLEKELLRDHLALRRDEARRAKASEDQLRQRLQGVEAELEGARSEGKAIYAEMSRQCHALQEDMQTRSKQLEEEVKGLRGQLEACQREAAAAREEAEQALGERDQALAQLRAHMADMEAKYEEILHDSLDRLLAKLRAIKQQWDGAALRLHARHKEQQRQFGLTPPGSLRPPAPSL

[9] = molecular target: T6, traf2_human TRAF2 (UniProt Q12933)
T6 sequence: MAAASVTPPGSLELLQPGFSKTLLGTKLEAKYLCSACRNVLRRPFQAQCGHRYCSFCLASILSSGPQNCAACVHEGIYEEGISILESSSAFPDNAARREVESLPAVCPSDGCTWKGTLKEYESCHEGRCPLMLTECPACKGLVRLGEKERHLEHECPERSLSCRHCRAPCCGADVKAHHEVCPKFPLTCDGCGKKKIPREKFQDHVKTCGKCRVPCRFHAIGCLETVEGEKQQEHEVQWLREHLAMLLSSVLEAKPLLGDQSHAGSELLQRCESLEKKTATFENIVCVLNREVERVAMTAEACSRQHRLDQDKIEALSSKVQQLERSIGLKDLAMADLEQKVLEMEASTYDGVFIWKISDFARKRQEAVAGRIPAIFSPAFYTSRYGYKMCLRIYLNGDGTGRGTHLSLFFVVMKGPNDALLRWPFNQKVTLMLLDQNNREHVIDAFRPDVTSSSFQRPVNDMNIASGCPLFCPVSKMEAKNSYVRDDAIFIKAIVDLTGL

Chain of nup62_human NUP62 (P37198 whole entry): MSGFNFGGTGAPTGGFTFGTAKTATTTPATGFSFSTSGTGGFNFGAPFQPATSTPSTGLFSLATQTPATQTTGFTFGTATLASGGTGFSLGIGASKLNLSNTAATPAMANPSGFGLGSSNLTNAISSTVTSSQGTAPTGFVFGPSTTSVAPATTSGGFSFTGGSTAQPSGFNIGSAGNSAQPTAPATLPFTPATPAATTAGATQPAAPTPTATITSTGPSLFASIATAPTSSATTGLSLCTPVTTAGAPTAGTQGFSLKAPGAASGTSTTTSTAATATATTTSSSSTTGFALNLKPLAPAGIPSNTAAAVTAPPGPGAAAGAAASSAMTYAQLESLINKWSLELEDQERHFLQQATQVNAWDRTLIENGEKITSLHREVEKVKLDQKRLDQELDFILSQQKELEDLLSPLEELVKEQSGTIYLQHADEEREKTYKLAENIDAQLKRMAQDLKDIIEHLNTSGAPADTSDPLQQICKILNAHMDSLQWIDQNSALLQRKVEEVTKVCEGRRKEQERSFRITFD

With “Golgi reassembly-stacking protein 2 (Homo sapiens) (from UniProt Q9H8Y8) L320R” the “effect of a mutation on the interaction” value [1] was “disrupting interaction strength”, the “effect of a mutation on the interaction” value [2] was “with no effect” and the “effect of a mutation on the interaction” value [3] was “with no effect”. For the same substance, the “effect of a mutation on the interaction” value [4] was “with no effect”, the “effect of a mutation on the interaction” value [5] was “disrupting interaction strength” and the “effect of a mutation on the interaction” value [6] was “with no effect”. The “effect of a mutation on the interaction” value [7] was “with no effect”, the “effect of a mutation on the interaction” value [8] was “with no effect” and the “effect of a mutation on the interaction” value [9] was “with no effect”.
